Laboratory results published in publication PMC4851370, “The N-Terminus of the Floral Arabidopsis TGA Transcription Factor PERIANTHIA Mediates Redox-Sensitive DNA-Binding”.
Positions count from the first letter of the chain named.

T1: … (PAN) (Arabidopsis thaliana, UniProt Q9SX27 1-452)
T1 sequence: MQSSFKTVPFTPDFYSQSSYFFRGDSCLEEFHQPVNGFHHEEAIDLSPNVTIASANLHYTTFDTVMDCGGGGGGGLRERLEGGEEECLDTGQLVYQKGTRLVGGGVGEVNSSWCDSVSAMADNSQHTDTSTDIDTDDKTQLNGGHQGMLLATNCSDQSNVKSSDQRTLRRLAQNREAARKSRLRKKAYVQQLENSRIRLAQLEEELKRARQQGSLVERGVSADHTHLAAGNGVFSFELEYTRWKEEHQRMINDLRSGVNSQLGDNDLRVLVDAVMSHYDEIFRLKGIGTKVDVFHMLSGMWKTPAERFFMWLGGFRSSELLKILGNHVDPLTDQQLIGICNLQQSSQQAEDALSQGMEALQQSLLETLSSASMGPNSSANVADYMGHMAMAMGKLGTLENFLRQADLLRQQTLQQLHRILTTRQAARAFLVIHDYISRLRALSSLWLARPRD

T2: PANC27SC68SC87SC114SC154SC340S (PAN6xCysmut) (Arabidopsis thaliana, UniProt Q9SX27 1-452, C27S;C68S;C87S;C114S;C154S;C340S)
T2 sequence: T1 sequence with C27S, C68S, C87S, C114S, C154S, C340S

T3: PANC27SC68SC87SC114SC154S (Arabidopsis thaliana, UniProt Q9SX27 1-452, C27S;C68S;C87S;C114S;C154S)
T3 sequence: T1 sequence with C27S, C68S, C87S, C114S, C154S

T4: PANC68SC87S (Arabidopsis thaliana, UniProt Q9SX27 1-452, C68S;C87S)
T4 sequence: T1 sequence with C68S, C87S

T5: TGA3 (Arabidopsis thaliana, UniProt Q39234 1-384)
T5 sequence: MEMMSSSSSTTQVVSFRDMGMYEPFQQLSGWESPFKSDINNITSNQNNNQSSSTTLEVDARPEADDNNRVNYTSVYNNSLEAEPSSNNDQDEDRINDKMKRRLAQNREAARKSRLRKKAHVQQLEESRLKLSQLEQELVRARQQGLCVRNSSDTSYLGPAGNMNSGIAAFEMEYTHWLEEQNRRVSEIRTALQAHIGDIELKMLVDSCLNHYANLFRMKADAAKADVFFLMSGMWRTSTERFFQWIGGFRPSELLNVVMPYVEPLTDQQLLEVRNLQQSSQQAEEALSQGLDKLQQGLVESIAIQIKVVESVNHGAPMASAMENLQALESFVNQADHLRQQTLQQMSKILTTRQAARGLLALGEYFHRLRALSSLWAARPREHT

T6: TGA2 (Arabidopsis thaliana, UniProt P43273 1-330)
T6 sequence: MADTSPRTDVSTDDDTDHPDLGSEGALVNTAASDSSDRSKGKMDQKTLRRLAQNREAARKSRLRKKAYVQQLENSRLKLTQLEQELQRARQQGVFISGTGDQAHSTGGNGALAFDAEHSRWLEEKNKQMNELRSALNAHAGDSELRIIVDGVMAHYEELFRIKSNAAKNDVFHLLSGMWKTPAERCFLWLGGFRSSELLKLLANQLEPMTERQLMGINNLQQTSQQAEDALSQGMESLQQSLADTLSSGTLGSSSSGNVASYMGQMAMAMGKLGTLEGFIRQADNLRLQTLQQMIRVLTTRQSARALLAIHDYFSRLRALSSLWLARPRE

T7: TGA1 (Arabidopsis thaliana, UniProt Q39237 1-368)
T7 sequence: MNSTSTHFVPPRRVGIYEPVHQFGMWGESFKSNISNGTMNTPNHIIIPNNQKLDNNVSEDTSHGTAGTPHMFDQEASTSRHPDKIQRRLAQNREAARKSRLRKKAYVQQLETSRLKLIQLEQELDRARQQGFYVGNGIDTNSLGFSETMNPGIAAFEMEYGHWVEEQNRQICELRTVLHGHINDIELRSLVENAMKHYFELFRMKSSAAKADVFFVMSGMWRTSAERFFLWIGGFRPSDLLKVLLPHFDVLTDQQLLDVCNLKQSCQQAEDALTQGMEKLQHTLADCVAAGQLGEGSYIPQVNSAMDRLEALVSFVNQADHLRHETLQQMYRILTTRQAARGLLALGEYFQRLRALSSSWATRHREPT

T8: TGA10 (Arabidopsis thaliana, UniProt E3VNM4 1-460)
T8 sequence: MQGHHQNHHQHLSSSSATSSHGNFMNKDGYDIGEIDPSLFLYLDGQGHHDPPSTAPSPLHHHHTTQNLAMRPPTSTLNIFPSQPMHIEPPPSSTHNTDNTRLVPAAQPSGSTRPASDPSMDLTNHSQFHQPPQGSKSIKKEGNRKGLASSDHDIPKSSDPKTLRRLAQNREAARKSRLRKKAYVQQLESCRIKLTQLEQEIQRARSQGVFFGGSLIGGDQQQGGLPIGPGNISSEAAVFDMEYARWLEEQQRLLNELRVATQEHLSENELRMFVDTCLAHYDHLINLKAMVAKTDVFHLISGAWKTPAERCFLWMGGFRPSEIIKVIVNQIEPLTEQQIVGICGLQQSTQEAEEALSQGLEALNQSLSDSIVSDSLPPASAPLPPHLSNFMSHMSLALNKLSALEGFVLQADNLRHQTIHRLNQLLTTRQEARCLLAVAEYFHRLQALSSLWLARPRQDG

T9: PANΔN (Arabidopsis thaliana, UniProt Q9SX27 167-452, del1-166)
T9 sequence: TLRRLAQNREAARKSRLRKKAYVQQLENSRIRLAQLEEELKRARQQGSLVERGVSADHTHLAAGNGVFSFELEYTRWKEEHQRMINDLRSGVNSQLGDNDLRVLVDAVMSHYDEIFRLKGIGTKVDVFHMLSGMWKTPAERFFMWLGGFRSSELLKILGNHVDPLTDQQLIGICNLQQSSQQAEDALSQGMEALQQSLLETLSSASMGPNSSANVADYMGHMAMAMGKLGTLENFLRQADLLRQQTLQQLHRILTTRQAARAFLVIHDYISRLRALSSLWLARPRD

B1: AAGAAT (dsDNA)
DNA 1: AAGAATCTTTGATCACGTCATCACTCAGATATT
DNA 2: AATATCTGAGTGATGACGTGATCAAAGATTCTT
B2: ΔbZIP (dsDNA)
DNA 1: B1 DNA 1 with C16A, G17A
DNA 2: B1 DNA 2 with C17T, G18T

How the values were obtained:
Conditions in all cases: protein: ivt; tags: none; chain copies: 2; label: 5' 32P; blunt
… (PAN) = target: T1, … (PAN); test: EMSA; EMSA as in cited ref 20 (buffer, salt, pH, temperature not given); with or without 0.9 or 20 mM DTT or 2 mM diamide, 30 min in the dark before probe addition
[1] = target: T2, PANC27SC68SC87SC114SC154SC340S …; test: EMSA; 2 mM diamide; no inhibition; EMSA as in cited ref 20 (buffer, salt, pH, temperature not given); with or without 0.9 or 20 mM DTT or 2 mM diamide, 30 min in the dark before probe addition
[2] = target: T3, PANC27SC68SC87SC114SC154S; test: as above
PANC68SC87S = target: T4, PANC68SC87S; test: EMSA; 0.9 mM DTT; EMSA as in cited ref 20 (buffer, salt, pH, temperature not given); with or without 0.9 or 20 mM DTT or 2 mM diamide, 30 min in the dark before probe addition
TGA3 = target: T5, TGA3; test: as above
TGA2 = target: T6, TGA2; test: as above
TGA1 = target: T7, TGA1; test: as above
TGA10 = target: T8, TGA10; test: as above
PANΔN = target: T9, PANΔN; test: EMSA; 2 mM diamide; no reduction; EMSA as in cited ref 20 (buffer, salt, pH, temperature not given); with or without 0.9 or 20 mM DTT or 2 mM diamide, 30 min in the dark before probe addition

| Binder | binding result (… (PAN)) | binding result [1] | binding result [2] | binding result (PANC68SC87S) | binding result (TGA3) | binding result (TGA2) | binding result (TGA1) | binding result (TGA10) | binding result (PANΔN) |
| --- | --- | --- | --- | --- | --- | --- | --- | --- | --- |
| B1 | binds | binds | binds | binds | binds | binds | binds | binds | binds |
| B2 | no binding |  |  |  |  |  |  |  |  |
